Assay: yeast display, Sf9 membrane polyspecificity reagent, FACS + sequencing; frameworks hold sequencing errors
Procedure, shortened: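 Genes from sorted yeast were amplified by colony PCR, read by MiSeq 2 × 250 sequencing and filtered on CDR length. These cells carried a synthetic nanobody library in Saccharomyces cerevisiae BJ5465 and were sorted by FACS into low and high (top ~1%) gates on anti-HA and streptavidin fluorescence. Polyreactivity is labelled according to the gate of origin.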

Row | Sequence | polyreactivity (PSR sort gate)
1 | QVQLVESGGGLVQAGGSLRLSCAASGRILSANAMGWYRQAPGTERELVAAITYSGDNTYYADSVKGRFTISRDNAKNTVYLQMNSLKPEDTAVYYCAREFQVDGGEEDYWGQGSQVTVSS | low polyreactivity
2 | QVQLVESGGGLVQAGGSLRLSCAASGGTFYGYAAMGWYRQAPGKERELVAAISRSGGRTYYADSVKGRFTISRDNAKNTVYLQMNSLKPEDTAVYDCNVGFYPYSFLTFQGGDYWGQGTQVTVSS | high polyreactivity
3 | QVQLEESGGGLVQAGGSLRLSCAASGRTFKLNAMGWYRQAPGKERELVAAISRNGGSTYYADSVKGRFTISRDNAKNTVYLQMNSLKPEDTAVYYCAAVRHGVSLAGYYWGQGTQVTVSS | high polyreactivity
4 | QVHLVESGGGLVQAGGSLRISCSASGPSYTHYAMGWYRQAPGKERELVASICDGGGTHYADSVKGRFTISRDNAKNTVYLEMKSLKPEDTAVYYCATYRYPTRRYDYWGQGTQVPVSS | low polyreactivity
5 | QVQLVESGGGLVQAGGSLSLSCAASGRIFDYYAMVWYRQAPGKERDLVAAISTSGGSTYYADSVKGRFTISRDNAKNTVYLQMISLKPVDTAVYYCAKDITVTYPGLDYDYWGQGTQVSVSS | low polyreactivity
6 | QVQLVESGGGLVQAGGSLRLSCAASGSIFGRNAMGWYRQAPGKERELVAAIRTRGGSTYYADSVKGRFTNSRDIAKNSVYLQMNSLKPEDTAVYYCAAPGGGKEVDYWGQGTQVTVSS | low polyreactivity
7 | QVHLVESGGGLVQAGGSLRLSCAASGTIYYVYSMVWYRQAPGKERELVASINKSGGSTYYADSVKWRFTISRDNAKNTVYLQMNSLKREDTAVYYCAARTGWPRVGFQYPAHVGFDYWGQGTQVTVSS | low polyreactivity
8 | QVQLVESGGGLVQAGGSLRLSCAASGRTIHYYAMGRSRQAPGKERELVAAITRGGNTYYADSVKGRFTISRDNAKNTVYLQMNSLKPEDTAVYYCAKDNHFEAYRYDYWGQGTQVTVSS | high polyreactivity
9 | QVQLLESGGGLVQAGGSLRLSCAASGSTFVGYAMGWYRQAPGKERELVAAISGSGTSTYYADSVKGRFTISRDNAKNTVYLQMNSLKPEDTAVYYCNADPIFVYSSYNYWGQGTQVTVSS | low polyreactivity
10 | QVQLEESGGGLVQAGGSLRLSCAASGLISVWYVMGWYRQAPGKERELVAAIRYGGGRTYYADSVKGRFTISRDNAKNTVYLQMNSLKPEDTAVYYCNARPYRGTYGYWGQGTQVTVSS | high polyreactivity
11 | QVQLVESGGGLVQAGGSLRLSCAASGRTFGRYAMGWYRQAPGKERELVAAISTSGGSTYYADSVKGRFTISRDNAKNTVYLQMNSLKPEDTAVYYCAATIGRRSYNQMYYWGQGTQVTVSS | high polyreactivity
12 | QVQLVESGGGLVQAGGSLRLSCAASGLIFYYYAMGWYRQAPGKERELVAAITRGGRTYYADSVKGRFTISRDNAKNTVYLQMNSLKPEDTAVYYCNTVSVKSGLDYWGQGTQVTVSS | high polyreactivity
13 | QVQHVESGGGLVQAGGSLRLSCAASGSTFTSYALGWYRQAPGKERELVAAISKSGGSTYYADSVKGRFTISRDNAKNTVYLQMNSLKPEDTSVYYCAASYNVRSYSTSRFDYWGQGTQVTVSS | low polyreactivity
14 | QVQLVESGGGLVQAGGSLRLSCAASGRTFSYNAIGWYRQAPGKERTNYADSVKGRFTISRDNAKNTVYLQMNSLKPEDTAVYYCAVEPYLSYPPTSIDNDYDYWGQGTQVTVSS | low polyreactivity
15 | QVQLVESGGGLVQAGGSLRLSCAASGRIFKFYAMGWYRQAPGKERELVAAISRTGGNTYYADSVKGRFTISRDNAKNTVYLQMNSLKPEDTAVYYCAAETYARSSSSKYEYWGQGTQVTVSS | high polyreactivity
16 | QVQLVESGGGLVQAGGSLRLSCAPSGRIFQYNAMGWYRQAPGKERELGAAISNSTTRTYYADSVKGRFTISRDNAKNTVYLQMNSLKPEDTGVYYCAARGYFWSSYKYDYWVQGTQVTVSS | high polyreactivity

Row | Sequence | polyreactivity (PSR sort gate)
17 | QVQLVESGGGLVQAGGSLRLTCAASGSTIADNAMGWYRPAPGTERELVAGITRRGGSTYYADSVKGRFTISRDNAKNTVYLQMNSLKPEDTAVYYCNKGPVRGRYSVWPIEMDYWGQGTQVTVSS | low polyreactivity
18 | QVQLVESGGGLVQAGGSLRLSCAASGSTLYGYAMGWYRQAPGKERELVAAISSSGTRTYYADSVKGRFTISRDNAKNSVYLQMNSLKPEDTAVYYCNAYYYIPFEGRGYSKMDYWGQGTQVTVSS | high polyreactivity
19 | QDQLVESGGGLVQAGGSLRLSCAASGYTLYTYAMGWNRQAPRKERELVAAISTGGGRTYNADSVKGRFTISRDNAKNTVYLQMICLKPEDTAVYYCAAPYRSLKTGRYDYWGQGTQVSVSS | high polyreactivity
20 | QVQLVESGGGLVQAGGSLRLSCAASGFTFRYYTMGWYRQAPGKERELVASISRRGGSTYYADSVKGRFTISRDNAKNTVYLQMNSLKPEDTAVYYCNTLSQVFASRAPKFDYWGHGTQVTVSS | high polyreactivity
21 | QVQLVESGGGLVQAGGSLRLSCAASGSTFRLYTMGWYRPAPVKERELVAAITSGGSTNYADSVKGRFTISRDNAKNTVYLQMNSLKPEDTSVYYCAIAKRFPSFDYWGQGTQVTVSS | low polyreactivity
22 | QVQLVESGGGLVQAGGSLRLSCDASGLNMYKNGMGWYRQAPGKERELVAVISRSGCRTYYADSVKGRFTISRDTAKNTVYVQMNSLKPEDTAVYYCAARQYGPRYTYYYWGQGTQVTVSS | high polyreactivity
23 | QVQLVESGGGLVQAGGSLRLSCAASGITVYLYAMGWYRQAPGKERELVAAISSSGGSTYYADSVKGRFTISRDNAKNTVYLQMNSLKPEDTAVYYCAAVYYTSVTIYDYWGQGTQVTVSS | high polyreactivity
24 | QVQLVESGGGLVQAGGSLRLSCAASGFTFDIYAMGWYRQAPGKERELVATISFTGDTTSYADSVKGRFTISRHNAKNTVYLQMNSLKPEDTAVYYCAADGSYPLSVGRENLHYAEFDYWGQGTQVTVSS | low polyreactivity
25 | QVQLVESGGGLVQAGGSLRISCAASGLIIAYAMGWYRPAPGKERELVAASSGRDGSTYYADSVKGRFTISRDNAKNTVYLHMNSLKPEATAVYYCAKRISYLPVEMDYWGQGTQLTVSS | low polyreactivity
26 | QVQLVESGGGLVHAGGSLLLSCAASGRTFRTYTMGLYRQAPGKERELVAVITWTGGSTYYADSVKGRFTISRDNAKNTVYIQMNSLKPEDTAVYYCAARIITFSNVYNGYEYWGQGTQVTVSS | high polyreactivity
27 | QVQRVESAGGLVQAGGSLRLSCAASGRTFSGNARGWYRPAPGKERELVAGISTTGGSTYYADSVKGRFTISRDNAKNTVYLEMNSLKPADTAVYYCAAYSASNGGYDYWGQGTQVTVSS | high polyreactivity
28 | QVQLVESGAGLVQAGGSLRLSCAASGRTFGTNTKGWYRPAPGKEREFVATITSSGGSTYYADSVKGRFTISRDNAKNTVYLQMNSLKPEDTAVYYCATDPYGGKTQYPSLRYDYWGQGTQVTVSS | low polyreactivity
29 | QVQLVESGVGLDQAGGSLRLSCAASGSIIWYYAMGWYRQAPGKERELVAAITVSGGSTYYADSVKGRFTISRDNAKNTVYLEMNTLKPEDTAVYYCAALYISLSGDEYDYWGQGTQVTVSS | low polyreactivity
30 | QVQLVESVGGLVQAGGSLRLSCAASGRIYAMGLYRPAPGKERELVAAISRGGSTYYADSVKGRFTISRDNAKNTVYLQMNSLKPEDSAVYYCARRYASTGYDYWGQGTQVTESS | high polyreactivity
31 | QVQLVESGGGLVQAGGSLRLSCAASGSTFGVNAMGWYRQAPGKERELVATISRGTSTNYADSVKGRFTISRDNAKNTVYLQMHSLKPEDTAVYYCAKRVFYPGAYRYYYWGQGTQVTVSS | high polyreactivity

From the nanobody polyreactivity screen of Harvey et al. (2022)
